The source of these data is patent publication US20250346644A1 (LATTICON SUZHOU BIOPHARMACEUTICALS, published 2025).

A word on the Kd: it is a measure of binding affinity in units of concentration. For orientation: koff means the rate constant with which the complex falls apart. One may read the kon as a measure of how fast the partners come together. Low readings indicate slow association, high ones fast association. Broadly, the EC50 is the concentration giving half of the maximal effect. Read a high EC50 as a need for much substance.

Assay [1] has as its target T1, hIL2-DM-his (human, UniProt P60568 21-153).
T1 construct: expressed in ExpiCHO-S cells, nickel-column purified; also called hIL-2 mutein containing two point mutations K64G and N90R (with a his-tag); not shown: his-tag
In words: BLI ForteBio, Ab on Protein A sensor. (In general: Biolayer interferometry detects binding as a change in optical thickness at a sensor tip.)

In assay [2] the target is T2, hIL2-TM-his (human, UniProt P60568 21-153).
T2 construct: also called hIL-2 mutein containing three point mutations K64G, N90R and M104E (with a his-tag); not shown: his-tag
T2 chain: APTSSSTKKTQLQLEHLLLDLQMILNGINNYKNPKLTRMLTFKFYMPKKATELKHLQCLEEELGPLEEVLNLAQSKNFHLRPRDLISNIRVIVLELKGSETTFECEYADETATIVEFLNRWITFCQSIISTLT
In words: BLI ForteBio, Ab on Protein A sensor.

In assay [3] the target is T3, mIL2-his (mouse, UniProt P04351 21-169).
T3 construct: also called wild-type mouse IL-2 (with a his-tag); not shown: his-tag
T3 sequence (looked up): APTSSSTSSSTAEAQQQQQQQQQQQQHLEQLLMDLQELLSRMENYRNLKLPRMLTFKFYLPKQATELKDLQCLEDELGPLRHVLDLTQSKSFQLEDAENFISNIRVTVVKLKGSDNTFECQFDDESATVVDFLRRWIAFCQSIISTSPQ
As to the kind of experiment: BLI ForteBio, Ab on Protein A sensor.

Assay [4] addresses T3, mIL2-his. As to the kind of experiment: BLI ForteBio, Ab on Protein A sensor. The source holds these as a separate data set.
Experimental: After each cycle of association and dissociation steps, the sensor was regenerated by 10 mM glycine buffer (pH 1.5) and then stated with the next cycle of detection. After the detection, the association rate constant and dissociation rate constant between the antibody and antigen were fitted and extrapolated using the analytical software, and the value of affinity constant (KD) was calculated.
Assay [5] addresses T3, mIL2-his. In words: ELISA, antibody captured by anti-human IgG, mIL2-his titrated. (In general: In an ELISA, binding on a coated surface is turned into a signal by an enzyme label.)
Experimental: (§1) ELISA was performed as follows: a goat anti-human IgG (Jackson Immunoresearch) was diluted to 1 μg/mL in 1×PBS and added to an ELISA plate at 100 μL/well, and then incubated at 4° C. overnight. The plate was washed with PBS and then blocked at room temperature for 1 hour after adding the blocking solution (PBST containing 1% BSA) to each well. […] The plate was washed with PBST; the HRP-labeled anti-6×His-tag secondary antibody (Proteintech) diluted at a ratio of 1:10,000 in blocking solution was then added to each well and incubated at room temperature for 1 hour. The plate was washed with PBST; the TMB chromogenic solution (Thermo) was added to each well and incubated in dark for 3-10 minutes at room temperature. The stop solution (2 M HCl) was added to each well, and OD values at a wavelength of 450-570 nm were read using a multimode microplate reader (Varioskan, Thermo).
For assay [6], the target named is T4, hIL2Rβ (hCD122) (human, UniProt P14784 27-239, limits assumed).
T4 construct: bought recombinant protein; also called hCD122 (Acro)
T4 sequence (looked up): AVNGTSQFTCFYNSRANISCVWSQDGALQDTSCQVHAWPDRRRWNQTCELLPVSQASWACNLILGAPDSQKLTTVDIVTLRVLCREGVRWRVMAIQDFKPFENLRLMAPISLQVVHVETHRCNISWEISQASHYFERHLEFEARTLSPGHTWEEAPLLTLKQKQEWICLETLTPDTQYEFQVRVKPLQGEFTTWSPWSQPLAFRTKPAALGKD
In words: ELISA (method of section 2.1.1): sample captured on coated goat anti-human IgG, hCD122 titrated; the x axis is the CD122 concentration.
Experimental: as §1

Assay [7] has as its target T5, high-affinity IL2R expressed on the surface of CTLL-2 cells.
T5 sequence (P01590 whole entry, species assumed, looked up): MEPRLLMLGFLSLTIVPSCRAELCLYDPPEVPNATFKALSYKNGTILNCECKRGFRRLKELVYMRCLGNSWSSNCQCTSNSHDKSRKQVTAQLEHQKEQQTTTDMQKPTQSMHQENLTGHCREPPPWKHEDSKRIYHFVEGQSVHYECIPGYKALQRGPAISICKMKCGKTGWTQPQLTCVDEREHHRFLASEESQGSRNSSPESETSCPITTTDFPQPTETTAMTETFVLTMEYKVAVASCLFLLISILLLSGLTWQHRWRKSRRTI
T5 sequence (P16297 whole entry, species assumed, looked up): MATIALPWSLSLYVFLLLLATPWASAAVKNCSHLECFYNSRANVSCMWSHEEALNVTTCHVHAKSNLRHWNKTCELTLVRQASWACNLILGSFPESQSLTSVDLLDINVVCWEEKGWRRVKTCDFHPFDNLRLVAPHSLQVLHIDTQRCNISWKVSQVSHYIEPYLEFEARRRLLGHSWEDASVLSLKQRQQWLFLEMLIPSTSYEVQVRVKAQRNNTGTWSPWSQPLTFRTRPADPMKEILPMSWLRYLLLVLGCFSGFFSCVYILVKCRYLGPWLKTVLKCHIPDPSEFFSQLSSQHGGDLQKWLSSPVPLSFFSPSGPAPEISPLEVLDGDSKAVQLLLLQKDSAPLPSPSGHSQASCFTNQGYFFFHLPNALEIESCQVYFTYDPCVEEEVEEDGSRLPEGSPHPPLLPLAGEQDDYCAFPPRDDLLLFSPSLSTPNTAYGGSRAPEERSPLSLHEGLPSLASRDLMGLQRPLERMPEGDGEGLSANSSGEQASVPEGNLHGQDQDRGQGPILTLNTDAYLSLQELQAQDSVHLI
T5 sequence (P34902 whole entry, species assumed, looked up): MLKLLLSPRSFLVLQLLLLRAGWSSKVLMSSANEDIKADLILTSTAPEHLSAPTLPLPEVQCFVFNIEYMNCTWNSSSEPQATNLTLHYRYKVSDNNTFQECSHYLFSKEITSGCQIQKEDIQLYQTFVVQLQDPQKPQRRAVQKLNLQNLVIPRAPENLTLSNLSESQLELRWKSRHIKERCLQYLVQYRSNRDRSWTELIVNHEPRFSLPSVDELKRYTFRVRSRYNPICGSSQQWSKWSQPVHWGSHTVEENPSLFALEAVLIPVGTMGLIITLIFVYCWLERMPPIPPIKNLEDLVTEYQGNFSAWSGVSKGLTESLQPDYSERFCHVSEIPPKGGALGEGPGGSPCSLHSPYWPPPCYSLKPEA
In words: cell-based or functional assay.

Read-outs that look alike come from different tables or passages of the source.

B1: S4B6 chimeric antibody (antibody, human IgG1, V domains shown)
VH: EVQLQESGAELVRPGTSVKLSCKVSGDTITAYYLHFVRQRPGQGLEWIGRIDPEDDSTKYAENFKNKATFTADASSNTAYLRLSSLTSEDTATYFCTTVTFYYSRELRWFAYWGQGTLVTVSS
VL: DIQVTQSPASLSASLEEIVTITCQASQDIGNYLSWYQQKLGKSPQLLIHSATSLADGVPSRFSGSRSGTQYSLKINRLQVEDTGIYYCLQHYSTPYTFGAGTKLELK
notes: also called chS4B6
Regarding B1, the Kd was 39.4 nM in assay [1], 22.6 nM in assay [2], 0.996 nM in assay [3] and 0.996 nM in assay [4]. Also, the koff stood at 0.0106 s⁻¹ in assay [1], 0.00476 s⁻¹ in assay [2], 0.000182 s⁻¹ in assay [3] and 0.000182 s⁻¹ in assay [4]. Moreover, the on-rate (kon) came to 269000 M⁻¹ s⁻¹ in assay [1], 210000 M⁻¹ s⁻¹ in assay [2], 183000 M⁻¹ s⁻¹ in assay [3] and 183000 M⁻¹ s⁻¹ in assay [4]. The molecule also came in with an EC50 in assay [5] of 0.0139 µg/mL.

B2: IC-Cy08-QG (other)
heavy: APTSSSTKKTQLQLEHLLLDLQMILNGINNYKNPKLTRMLTFKFYMPKKATELKHLQCLEEELGCLEEVLNLAQSKNFHLRPRDLISNIRVIVLELKGSETTFMCEYADETATIVEFLNRWITFCQSIISTLTGGGGSGGGGSGGGGSGGGGSQVQLVQSGAEVKKPGATVKISCKVSGDTITAYYMHWVRQAPGQGLEWIGRIDPEDDSTKYAENFKGRVTITADTSTDTAYMELSSLRSEDTAVYYCTTVTCYYSRELRWFAYWGQGTLVTVSS
VL: DIVLTQSPATLSLSPGERATLSCQASGDIGNYLSWYQQKPGQAPRLLIYSATSLASGIPARFSGSRSGTDFTLTISSLEPEDFAVYYCLQHYSTPYTFGQGTKLEIK
notes: IC-Cy08 with light chain Q27G; also called H6K3(H)-Cy-08-QG
As for B2, the binding result in assay [6] is recorded as “binds”.

B3: hS4B6-H3K3 (antibody, V domains shown)
VH: QVTLKESGPVLVKPTQTLTLTCTVSGDTITAYYLHWIRQPPGKALEWIGRIDPEDDSTKYAENFKNRLTFSADTSKNQVVLTMTNMDPVDTATYYCARVTFYYSRELRWFAYWGQGTLVTVSS
VL: DIVLTQSPATLSLSPGERATLSCQASQDIGNYLSWYQQKPGQAPRLLIYSATSLADGIPARFSGSRSGTDYTLTISSLEPEDFAVYYCLQHYSTPYTFGQGTKLEIK
notes: full antibody
In assay [4], B3 returned an equilibrium dissociation constant (Kd) of 13.2 nM, an off-rate (koff) of 0.00265 s⁻¹ and a kon of 200000 M⁻¹ s⁻¹. In addition, the EC50 in assay [5] is 0.185 µg/mL.

B4: hS4B6-H1K1 (antibody, V domains shown)
VH: QVQLQESGPGLVKPSETLSLTCTVSGDTITAYYLHWIRQPPGKGLEWIGRIDPEDDSTKYAENFKNRVTISVDTSKNQFSLKLSSVTAADTAVYYCTTVTFYYSRELRWFAYWGQGTTVTVSS
VL: DIVLTQSPGTLSLSPGERATLSCQASQDIGNYLSWYQQKPGQAPRLLIYSATSLADGIPDRFSGSRSGTDYTLTISRLEPEDFAVYYCLQHYSTPYTFGQGTKVEIK
notes: full antibody
On to B4, for which, in assay [4], the Kd was determined as 25.9 nM, the koff worked out at 0.000719 s⁻¹ and the kon came out at 27700 M⁻¹ s⁻¹. In addition, a half-maximal response in assay [5] (EC50) required 0.0357 µg/mL.

B5: K2G11-Cy04 (other)
heavy: SSSTKKTQLQLEHLLLDLQMILNGINNYKNPKLTRMLTFKFYMPKKATELKHLQCLEEELGPLEEVLNLAQSKNFHLRPRDLISNIRVIVLELKGSETTFCCEYADETATIVEFLNRWITFLQSIISTLTGGGGSGGGGSGGGGSGGGGSQVQLVQSGAEVKKPGATVKISCKVSGDTITAYYMHWVRQAPGQGLEWIGRIDPDDDSTKYAENFKGRVTITADTSTDTAYMELSSLRSEDTAVYYCTTITFLYSRELRWFAYWGQGTLVTVSS
VL: DIVLTQSPATLSLSPGERATLSCQASQYISNYLSWYQQKPGQAPRLLIYSACSLASGIPARFSGSRSGTDFTLTISSLEPEDFAVYYCLQHYSTPYTFGQGTKLEIK
Consider B5, for which the “Activity in Promoting CTLL-2 Cell Proliferation (EC50, nM)” value in assay [7] amounted to 9.17 nM.

B6: IC-Cy08-QK (other)
heavy: APTSSSTKKTQLQLEHLLLDLQMILNGINNYKNPKLTRMLTFKFYMPKKATELKHLQCLEEELGCLEEVLNLAQSKNFHLRPRDLISNIRVIVLELKGSETTFMCEYADETATIVEFLNRWITFCQSIISTLTGGGGSGGGGSGGGGSGGGGSQVQLVQSGAEVKKPGATVKISCKVSGDTITAYYMHWVRQAPGQGLEWIGRIDPEDDSTKYAENFKGRVTITADTSTDTAYMELSSLRSEDTAVYYCTTVTCYYSRELRWFAYWGQGTLVTVSS
VL: DIVLTQSPATLSLSPGERATLSCQASKDIGNYLSWYQQKPGQAPRLLIYSATSLASGIPARFSGSRSGTDFTLTISSLEPEDFAVYYCLQHYSTPYTFGQGTKLEIK
notes: IC-Cy08 with light chain Q27K; also called H6K3(H)-Cy-08-QK; C-Cy8-QK
For B6, in assay [6], the binding result was “binds”.

B7: IC-Cy08-QR (other)
heavy: APTSSSTKKTQLQLEHLLLDLQMILNGINNYKNPKLTRMLTFKFYMPKKATELKHLQCLEEELGCLEEVLNLAQSKNFHLRPRDLISNIRVIVLELKGSETTFMCEYADETATIVEFLNRWITFCQSIISTLTGGGGSGGGGSGGGGSGGGGSQVQLVQSGAEVKKPGATVKISCKVSGDTITAYYMHWVRQAPGQGLEWIGRIDPEDDSTKYAENFKGRVTITADTSTDTAYMELSSLRSEDTAVYYCTTVTCYYSRELRWFAYWGQGTLVTVSS
VL: DIVLTQSPATLSLSPGERATLSCQASRDIGNYLSWYQQKPGQAPRLLIYSATSLASGIPARFSGSRSGTDFTLTISSLEPEDFAVYYCLQHYSTPYTFGQGTKLEIK
notes: IC-Cy08 with light chain Q27R; also called H6K3(H)-Cy-08-QR
Regarding B7, in assay [6], the binding result is on record as “binds”.

B8: IC-Cy08-QS (other)
heavy: APTSSSTKKTQLQLEHLLLDLQMILNGINNYKNPKLTRMLTFKFYMPKKATELKHLQCLEEELGCLEEVLNLAQSKNFHLRPRDLISNIRVIVLELKGSETTFMCEYADETATIVEFLNRWITFCQSIISTLTGGGGSGGGGSGGGGSGGGGSQVQLVQSGAEVKKPGATVKISCKVSGDTITAYYMHWVRQAPGQGLEWIGRIDPEDDSTKYAENFKGRVTITADTSTDTAYMELSSLRSEDTAVYYCTTVTCYYSRELRWFAYWGQGTLVTVSS
VL: DIVLTQSPATLSLSPGERATLSCQASSDIGNYLSWYQQKPGQAPRLLIYSATSLASGIPARFSGSRSGTDFTLTISSLEPEDFAVYYCLQHYSTPYTFGQGTKLEIK
notes: IC-Cy08 with light chain Q27S; also called H6K3(H)-Cy-08-QS
In the case of B8, the binding result in assay [6] is listed as “binds”.

B9: hS4B6-H6K7 (antibody, V domains shown)
VH: QVQLVQSGAEVKKPGATVKISCKVSGDTITAYYLHWVRQAPGQGLEWIGRIDPEDDSTKYAENFKNRVTITADTSTNTAYMELSSLRSEDTAVYYCTTVTFYYSRELRWFAYWGQGTLVTVSS
VL: DIQMTQSPSSLSASVGDRVTITCQASQDIGNYLSWYQQKPGKAPKLLIHSATSLADGVPSRFSGSGSGTDFTLTISSLQPEDFATYYCLQHYSTPYTFGGGTKVEIK
notes: full antibody
In assay [4], B9 had a Kd of 1.4 nM, a koff of 0.00121 s⁻¹ and a kon of 864000 M⁻¹ s⁻¹. In assay [5], this molecule returned an EC50 of 0.0357 µg/mL.
